Tests used:
[1] = biological target: T1, claudin-18.2 antigen (manufacturer: GenScript, batch number: R50092011) (UniProt P56856-2 1-261, limits assumed); assay: ELISA, plate coated with claudin-18.2 antigen
T1 construct: Bought antigen
T1 sequence (looked up): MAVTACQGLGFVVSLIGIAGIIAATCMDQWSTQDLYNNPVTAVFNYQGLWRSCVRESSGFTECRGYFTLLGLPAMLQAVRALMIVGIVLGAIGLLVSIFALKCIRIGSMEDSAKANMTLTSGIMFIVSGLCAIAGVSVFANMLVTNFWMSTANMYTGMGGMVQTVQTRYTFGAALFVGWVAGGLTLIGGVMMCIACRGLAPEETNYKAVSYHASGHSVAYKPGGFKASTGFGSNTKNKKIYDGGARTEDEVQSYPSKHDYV
Procedure: The ELISA plates were washed three times with PBST and blocked with 5% PBS-milk for 2 h at room temperature. The ELISA plate was washed three times with PBST, and the diluted antibodies were added to the ELISA plate, 30 μL per well, and incubated at room temperature for 60 min. The plates were washed three times with PBST and incubated with anti-human IgG-Fc-HRP (abcam, ab97225) for 50 min at room temperature. The plate was washed 12 times with PBST, and TMB was added, 30 μL per well. The reaction was terminated with stop solution and OD450 was read. The ELISA affinity EC50 was calculated.

[2] = biological target: T1, claudin-18.2 antigen (manufacturer: …); assay: Gator label-free kinetics, antibody loaded, antigen 2000-500 nM
Procedure: The GATOR instrument and associated software were opened and the Kinetics experimental mode was selected. After data collection, Kinetics fitting was performed to calculate the affinity kinetic parameters. The correlation coefficient R² of all antibodies in the Global fitting mode was greater than 0.95, which met the system suitability requirements and the results were reliable.

Binder | EC50 [1] | Kd [2] | koff [2] | kon [2]
1E7-huVH4-HC (IgG1) huVL3 (antibody, humanized 1E7, human IgG1, kappa) heavy: not shown light: DIQMTQSPSSLSASVGDRVTITCRSSQSLLNSGNQKNYLTWYQQKPGKAPKLLIYWASTRESGVPSRFSGSGSGTDFTLTISSLQPEDFATYYCQNDYSYPFTFGGGTKLEIKRTVAAPSVFIFPPSDEQLKSGTASVVCLLNNFYPREAKVQWKVDNALQSGNSQESVTEQDSKDSTYSLSSTLTLSKADYEKHKVYACEVTHQGLSSPVTKSFNRGEC | 0.05 µg/mL | 2.64 nM | 2.99e-05 s⁻¹ | 11300 M⁻¹ s⁻¹
1E7-huVH5-HC (IgG1) huVL2 (antibody, humanized 1E7, human IgG1, kappa) heavy: not shown light: DIQMTQSPSSLSASVGDRVTMTCKSSQSLLNSGNQKNYLTWYQQKPGKAPKLLIYWASTRESGVPSRFSGSGSGTDFTLTISSLQPEDFATYYCQNDYSYPFTFGGGTKLEIKRTVAAPSVFIFPPSDEQLKSGTASVVCLLNNFYPREAKVQWKVDNALQSGNSQESVTEQDSKDSTYSLSSTLTLSKADYEKHKVYACEVTHQGLSSPVTKSFNRGEC | 0.141 µg/mL | 13.1 nM | 0.000167 s⁻¹ | 12800 M⁻¹ s⁻¹
1E7-huVH5-HC (IgG1) huVL3 (antibody, humanized 1E7, human IgG1, kappa) heavy: not shown light: DIQMTQSPSSLSASVGDRVTITCRSSQSLLNSGNQKNYLTWYQQKPGKAPKLLIYWASTRESGVPSRFSGSGSGTDFTLTISSLQPEDFATYYCQNDYSYPFTFGGGTKLEIKRTVAAPSVFIFPPSDEQLKSGTASVVCLLNNFYPREAKVQWKVDNALQSGNSQESVTEQDSKDSTYSLSSTLTLSKADYEKHKVYACEVTHQGLSSPVTKSFNRGEC | 0.13 µg/mL | 0.929 nM | 9.83e-06 s⁻¹ | 10600 M⁻¹ s⁻¹
1B6-huVH3huVL2 (antibody, human IgG4 S228P, kappa, humanized 1B6, human IgG4, kappa) heavy: not shown light: DIQMTQSPSSLSASVGDRVTMTCKSSQSLFNSGNQKNYLTWYQQKPGKAPKLLIYWASTRESGVPSRFSGSGSGTDFTLTISSLQPEDFATYYCQNDYSYPLTFGGGTKLEIKRTVAAPSVFIFPPSDEQLKSGTASVVCLLNNFYPREAKVQWKVDNALQSGNSQESVTEQDSKDSTYSLSSTLTLSKADYEKHKVYACEVTHQGLSSPVTKSFNRGEC | 0.245 µg/mL | 12.7 nM | 0.000121 s⁻¹ | 9480 M⁻¹ s⁻¹
1B6-huVH1huVL2 (antibody, human IgG4 S228P, kappa, humanized 1B6, human IgG4, kappa) heavy: not shown light: DIQMTQSPSSLSASVGDRVTMTCKSSQSLFNSGNQKNYLTWYQQKPGKAPKLLIYWASTRESGVPSRFSGSGSGTDFTLTISSLQPEDFATYYCQNDYSYPLTFGGGTKLEIKRTVAAPSVFIFPPSDEQLKSGTASVVCLLNNFYPREAKVQWKVDNALQSGNSQESVTEQDSKDSTYSLSSTLTLSKADYEKHKVYACEVTHQGLSSPVTKSFNRGEC | 0.0775 µg/mL | 10.6 nM | 0.000164 s⁻¹ | 15500 M⁻¹ s⁻¹
1E7-mVHmVL (antibody, human IgG4 S228P, kappa, also called chimeric antibody 1E7; chimeric antibody murine 1E7 monoclonal antibody) heavy: not shown light: DIVMTQSPSSLSVTAGEKVTMSCKSSQSLLNSGNQKNYLTWYQQKPGQPPKLLIYWASTRESGVPDRFTGSGSGTDFTLTISSVQAEDLAVYYCQNDYSYPFTFGSGTKLEIKRTVAAPSVFIFPPSDEQLKSGTASVVCLLNNFYPREAKVQWKVDNALQSGNSQESVTEQDSKDSTYSLSSTLTLSKADYEKHKVYACEVTHQGLSSPVTKSFNRGEC |  | 2.66 nM | 2.71e-05 s⁻¹ | 10200 M⁻¹ s⁻¹
1E7-mVH-HC (IgG1) mVL (antibody, also called chimeric antibody 1E7-mVH-HC (IgG1) mVL) heavy: not shown light: DIVMTQSPSSLSVTAGEKVTMSCKSSQSLLNSGNQKNYLTWYQQKPGQPPKLLIYWASTRESGVPDRFTGSGSGTDFTLTISSVQAEDLAVYYCQNDYSYPFTFGSGTKLEIKRTVAAPSVFIFPPSDEQLKSGTASVVCLLNNFYPREAKVQWKVDNALQSGNSQESVTEQDSKDSTYSLSSTLTLSKADYEKHKVYACEVTHQGLSSPVTKSFNRGEC |  | 3.82 nM | 4.48e-05 s⁻¹ | 11700 M⁻¹ s⁻¹
1B6-mVH-HC (IgG1) mVL (antibody, also called chimeric antibody 1B6-mVH-HC (IgG1) mVL) heavy: not shown light: DIVMTQSPSSLTVTAGEKVTMSCKSSQSLFNSGNQKNYLTWYQQKPGQPPKLLIYWASTRESGVPDRFTGSGSGTDFTLTISSVQAEDLAVYFCQNDYSYPLTFGAGTKLELKRTVAAPSVFIFPPSDEQLKSGTASVVCLLNNFYPREAKVQWKVDNALQSGNSQESVTEQDSKDSTYSLSSTLTLSKADYEKHKVYACEVTHQGLSSPVTKSFNRGEC |  | 44.4 nM | 0.000792 s⁻¹ | 17800 M⁻¹ s⁻¹
1B6-mVHmVL (antibody, human IgG4 S228P, kappa, also called chimeric antibody 1B6; chimeric antibody murine 1B6 monoclonal antibody) heavy: not shown light: DIVMTQSPSSLTVTAGEKVTMSCKSSQSLFNSGNQKNYLTWYQQKPGQPPKLLIYWASTRESGVPDRFTGSGSGTDFTLTISSVQAEDLAVYFCQNDYSYPLTFGAGTKLELKRTVAAPSVFIFPPSDEQLKSGTASVVCLLNNFYPREAKVQWKVDNALQSGNSQESVTEQDSKDSTYSLSSTLTLSKADYEKHKVYACEVTHQGLSSPVTKSFNRGEC |  | 84.2 nM | 0.00188 s⁻¹ | 22300 M⁻¹ s⁻¹

Reference: US20250332197A1 (SUNSHINE LAKE PHARMA, published 2025)
